Experimental data from the supplement of paper PMC10126150.
± gives the standard deviation of the averaged measurements.

System: ATP
Experiment: switch fluorescence ratio, 500 uM ATP over buffer (Cy3 cluster intensity, sum of 5 cycles each) (fold (ratio)); higher = stronger signal-on switching upon ATP binding; sequences stand for … in TCGTCGGCAGCGTCAGATGTGTATAAGAGACAGTTTTTTTTTTTTTTTTTTTTTTTTT…TC
Conditions: aptamer strand: ATP DNA aptamer (quencher-CACCTGGGGGAGTATTGCGGAGGAAGG + anchor), 100 nM annealed; ATP concentration: 500 uM
Procedure, shortened: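 For every switch-domain sequence, the fluorescence ratio is the mean of per-cluster values, each being summed target-cycle Cy3 intensity over summed buffer-cycle Cy3 intensity. Clusters outside 100-1000 RFU were excluded. On a modified Illumina MiSeq flow-cell, the Cy3-labelled switching-strand clusters were annealed to 100 nM quencher-labelled ATP aptamer, imaged in selection buffer and then after 15 min with 500 uM ATP at 22 °C. Five such cycles were run, with NaOH stripping and re-annealing between them.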
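Also: ATP exposure 15 min at 22 °C before imaging.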

Row | Sequence | switch fluorescence ratio
1 | TTGGCAGTCG | 0.998 ± 0.02
2 | ATTTTCGTTA | 1.04 ± 0.024
3 | TCGGCTCTTG | 1.013 ± 0.0046
4 | TTTACGGTAA | 1.15 ± 0.019
5 | ATTGTTGTTA | 0.98517 ± 0.00068
6 | AGTTATCCGG | 0.97 ± 0.044
7 | TGTCTATCGG | 0.974 ± 0.014
8 | ACGGGGGGCA | 1.01 ± 0.048
9 | AGGCTTGATG | 0.972 ± 0.033
10 | AAGAGGGGT | 0.9904 ± 0.0048
11 | ATGGACGGTA | 1.105 ± 0.0076
12 | AAGGAGTTTT | 0.973 ± 0.034
13 | CAACTCAGTA | 0.988 ± 0.016
14 | GAACGGCTCG | 1.023 ± 0.0038
15 | TTGGGAGGGA | 1 ± 0.038
16 | CACTAATGGT | 1.073 ± 0.0072
17 | AAGTCAGCTG | 0.9826 ± 0.004
18 | ATTAGTTTGA | 0.985 ± 0.014
19 | CAGTGGGTTT | 0.97 ± 0.032
20 | TAGAAGTAGG | 1.01 ± 0.037
21 | TGGTCCTCCG | 1.87 ± 0.31
22 | TAAATTGGTT | 0.981 ± 0.0078
23 | AATCTGGGGT | 1 ± 0.028
24 | AACCTGCTAA | 1.057 ± 0.0014
25 | TTTTGAGTGA | 0.954 ± 0.041

Row | Sequence | switch fluorescence ratio
26 | AATCGGCTCA | 0.98074 ± 0.00017
27 | GAGATGCGAG | 0.963 ± 0.021
28 | CAAAATATGG | 0.984 ± 0.051
29 | GTTTAGAGGA | 1 ± 0.025
30 | CCGTCAGGCG | 1.039 ± 0.0067
31 | AAGGATTGGG | 1.02 ± 0.0049
32 | TTGTCGCGTA | 1.01 ± 0.07
33 | TTTCGTCATG | 1.03 ± 0.065
34 | CATATGTAGA | 0.997 ± 0.023
35 | GTACTCGGGG | 0.9991 ± 0.0074
36 | CCTATTAAAC | 1.04 ± 0.036
37 | TCGGCACCAA | 1.05 ± 0.046
38 | TTCATGTTGG | 0.998 ± 0.019
39 | CCTGGATTGC | 1.24 ± 0.093
40 | TCTAGAATGG | 0.982 ± 0.033
41 | TAAATTTGAA | 0.976 ± 0.0034
42 | AGTTGTGGGG | 0.995 ± 0.032
43 | TATATTTTGC | 0.994 ± 0.026
44 | GAATGGTTTT | 0.971 ± 0.084
45 | ACGACAGCAG | 1.39 ± 0.033
46 | TTATGGTTAT | 1.03 ± 0.015
47 | TGTTAAAAAA | 1.01 ± 0.02
48 | GACGGCTATG | 1 ± 0.048
49 | GGGGGAGATT | 0.977 ± 0.02
50 | AGATCTTCGG | 1.001 ± 0.0076

Row | Sequence | switch fluorescence ratio
51 | GCTGAAGGCT | 0.962 ± 0.03
52 | AGGTATCCAC | 1.03 ± 0.035
53 | AATTTTTTGT | 1.01 ± 0.033
54 | ATTTAAAATC | 0.9614 ± 0.0045
55 | GGGTTTACCT | 1.05 ± 0.051
56 | ATTAAATAG | 0.9803 ± 0.0081
57 | ATAGTCACAT | 1.02 ± 0.021
58 | CCACACTGAT | 1.025 ± 0.0025
59 | AGATTGATGC | 1.03 ± 0.03
60 | TGTGTTTTAG | 0.976 ± 0.015
61 | GAGGTATGTG | 0.997 ± 0.023
62 | ATATTGTCGT | 1.011 ± 0.0053
63 | GGGCTTTACG | 1.01 ± 0.011
64 | TCGCGTCTCA | 1.01 ± 0.046
65 | TGTGTTGTCA | 1.01 ± 0.011
66 | TGGGATTAGG | 0.969 ± 0.03
67 | TAAGGCTCCC | 1.063 ± 0.0044
68 | TCTGGGAAGT | 0.986 ± 0.011
69 | TACTACTTCT | 1.02 ± 0.023
70 | CGAGGGATGT | 0.982 ± 0.034
71 | TTCAAGGCGG | 1.01 ± 0.014
72 | CGGGTCGCGG | 0.992 ± 0.031
73 | GAGGTTTTGG | 1.03 ± 0.057
74 | AAGAGTAGAT | 1.01 ± 0.017
75 | CGAGGCTCGT | 1.02 ± 0.065

Row | Sequence | switch fluorescence ratio
76 | TAGGATGGCC | 0.9522 ± 0.0012
77 | TAAATCCGGT | 0.997 ± 0.041
78 | TTATTTAGGC | 1.12 ± 0.055
79 | CGAGGGTAAC | 0.983 ± 0.029
80 | GCGATAAAGC | 1.03 ± 0.041
81 | ATGGTGTGTG | 1.01 ± 0.033
82 | TTGATTTCGA | 1.06 ± 0.019
83 | CGATATCGAG | 0.98 ± 0.051
84 | ATGGGAAATC | 0.9978 ± 0.0044
85 | TAGGCTCGG | 1.014 ± 0.0019
86 | TACGGAGGGA | 1.08 ± 0.029
87 | CTTGGTAGGG | 1.03 ± 0.051
88 | CGCTGTTTTT | 1.02 ± 0.024
89 | TTTTGAGGAG | 0.9807 ± 0.0038
90 | GGGCATGCAT | 1.019 ± 0.0086
91 | TATCTTCTAT | 1.035 ± 0.0096
92 | GGAATGTGTT | 0.972 ± 0.013
93 | TTCCCTAAGG | 2.35 ± 1.7
94 | TTTTCGTTTC | 1.01 ± 0.033
95 | GGGCGTAAAA | 1.07 ± 0.023
96 | TATACCATTT | 1.01 ± 0.015
97 | TTTGTCCCG | 1.01 ± 0.044
98 | ATCGAAAGGG | 1.01 ± 0.054
99 | TTTGTGGGTC | 0.995 ± 0.043
100 | ATAGACGGAT | 0.987 ± 0.06

Row | Sequence | switch fluorescence ratio
101 | GCGATTTTTT | 0.974 ± 0.021
102 | CAGTGTGAGC | 1.01 ± 0.039
103 | TGGTGATGGC | 0.991 ± 0.012
104 | GGGTTAAACT | 0.987 ± 0.023
105 | AGGGTCGGTG | 0.98 ± 0.027
106 | ACAGGTTGAA | 0.996 ± 0.036
107 | CGGGGGATGC | 1.05 ± 0.036
108 | ATCATGAGTC | 0.972 ± 0.03
109 | TCAGGGTAGC | 1.02 ± 0.02
110 | AAGCATCTTT | 0.974 ± 0.013
111 | AAGTATATTG | 0.991 ± 0.025
112 | AAAGCGGGTC | 1.04 ± 0.015
113 | CAAGTGCTTA | 0.9578 ± 0.0081
114 | AAAATGTTTT | 1.02 ± 0.031
115 | GTTGGAGAGG | 0.974 ± 0.087
116 | TTAGGCAGAT | 1.24 ± 0.36
117 | TCGCCATGAT | 0.999 ± 0.02
118 | ATGCATTACT | 1.61 ± 0.11
119 | GGGGTAAGTA | 0.986 ± 0.027
120 | TGGGACTTAG | 1.017 ± 0.0022
121 | CTGTGTGATG | 0.991 ± 0.017
122 | CCTGATAGCG | 1.05 ± 0.03
123 | CGTGGTTTGC | 1.03 ± 0.053
124 | ACTGGGGATT | 1.04 ± 0.036
125 | ATTTTAAATG | 1.04 ± 0.03

Row | Sequence | switch fluorescence ratio
126 | CGGTTTTTAT | 0.983 ± 0.018
127 | CGTGGGGCGG | 0.999 ± 0.016
128 | GTTTTTGCTG | 0.976 ± 0.024
129 | GGCGGGATCT | 1.21 ± 0.26
130 | TATTTGAAGG | 0.986 ± 0.053
131 | TTCGTTAGAG | 0.9796 ± 0.0014
132 | GGGACCTTGT | 1.01 ± 0.064
133 | AAGATGATGG | 1.01 ± 0.023
134 | ATCGTAATGG | 1.04 ± 0.038
135 | GATGGTCGTT | 1.011 ± 0.0079
136 | AACGTTATCT | 1.04 ± 0.015
137 | CGAAAAGGAG | 1.01 ± 0.015
138 | CAGGTGGGGG | 1.01 ± 0.033
139 | GAGGTTTAAG | 0.957 ± 0.052
140 | AATCGCTTTG | 1.014 ± 0.0029
141 | TTTTCTTTAT | 1.03 ± 0.036
142 | CTTATACTGG | 1.02 ± 0.011
143 | GGTGGCTTTT | 1.02 ± 0.099
144 | ACATGTGGGG | 1.04 ± 0.025
145 | AGTTATACGT | 1.03 ± 0.048
146 | CTAAACTAGG | 1.02 ± 0.013
147 | AGCTTTGTC | 0.989 ± 0.043
148 | GTAATGAGCG | 0.998 ± 0.044
149 | CGCGGGGGGA | 1.03 ± 0.06
150 | TGGTTTAATT | 1.01 ± 0.017

Row | Sequence | switch fluorescence ratio
151 | GGTATCTGAT | 1.03 ± 0.02
152 | GACTGTGAGA | 1 ± 0.034
153 | ACGTAACCTA | 1.28 ± 0.014
154 | GATAGAGAGG | 1 ± 0.044
155 | TATAAAGCAG | 1.03 ± 0.024
156 | TGCGAGGGGG | 1.01 ± 0.033
157 | GAGGGCCGGG | 0.995 ± 0.068
158 | TGGGATTCCT | 1.03 ± 0.073
159 | CAGTGGCGTC | 1.05 ± 0.02
160 | CCCGGGGTTT | 1.31 ± 0.36
161 | GGATTGGACG | 0.976 ± 0.016
162 | GCGCATTGTT | 1.026 ± 0.0094
163 | TGAGGGGGGA | 1 ± 0.036
164 | AAAGTTGGAT | 0.977 ± 0.012
165 | TGGGGGGGGG | 1.02 ± 0.079
166 | AATAAGAGAG | 1.001 ± 0.0078
167 | GGGGGCAAAT | 0.9935 ± 0.0068
168 | TTAATAGCGT | 0.999 ± 0.029
169 | GGAGTATCCT | 0.981 ± 0.016
170 | AGGAAGGTGT | 1.13 ± 0.2
171 | GGGGGTTGAA | 1 ± 0.029
172 | TGGATCAGAG | 0.9984 ± 0.0013
173 | CAGGCTAAAG | 0.989 ± 0.032
174 | GGATCACACT | 1.02 ± 0.012
175 | GTCAGAGTCT | 1.05 ± 0.021

Row | Sequence | switch fluorescence ratio
176 | TGAAGGGTTC | 1.12 ± 0.24
177 | TGGCCGCGGA | 1.01 ± 0.03
178 | GGAGTATTGG | 1.02 ± 0.022
179 | ATTATGCTG | 0.98 ± 0.05
180 | TATAAGGGGC | 0.997 ± 0.027
181 | AGTCTGGATC | 0.9959 ± 0.0084
182 | TGAGCGGGAA | 1.01 ± 0.02
183 | AATTGAGTGT | 1.01 ± 0.019
184 | ATGCTCGGGG | 1 ± 0.015
185 | GGACGGGGGC | 1 ± 0.016
186 | TTGTGATAGC | 1.05 ± 0.075
187 | TCTGAGGGGG | 1 ± 0.027
188 | GAGGGGTACT | 1.025 ± 0.0042
189 | TTATCTTGGT | 1 ± 0.015
190 | TGGCTTTTAT | 0.95149 ± 0.00041
191 | AGCACGGGTA | 1.008 ± 0.0055
192 | GTTTGGGCGG | 0.978 ± 0.057
193 | CTAACGGAAT | 1.7 ± 0.34
194 | CGACACTTAG | 1.049 ± 0.0091
195 | CGGGACCTGG | 0.958 ± 0.077
196 | TAACCCTGAA | 0.984 ± 0.015
197 | TTTTCGAGAG | 1 ± 0.026
198 | CGGGGGAAGC | 1.02 ± 0.041
199 | TAAACTCCTT | 1.05 ± 0.035
200 | AGCTGGTCGT | 0.97265 ± 0.00075
